In PMC10838295:

Biological target: pyrrolated BSA (pyrBSA), P02769
Assay: ELISA
Conditions: chain shown with the change, left panel, antigen pyrBSA, read off a plot

Chain of pyrrolated BSA (pyrBSA), P02769 (P02769 25-607): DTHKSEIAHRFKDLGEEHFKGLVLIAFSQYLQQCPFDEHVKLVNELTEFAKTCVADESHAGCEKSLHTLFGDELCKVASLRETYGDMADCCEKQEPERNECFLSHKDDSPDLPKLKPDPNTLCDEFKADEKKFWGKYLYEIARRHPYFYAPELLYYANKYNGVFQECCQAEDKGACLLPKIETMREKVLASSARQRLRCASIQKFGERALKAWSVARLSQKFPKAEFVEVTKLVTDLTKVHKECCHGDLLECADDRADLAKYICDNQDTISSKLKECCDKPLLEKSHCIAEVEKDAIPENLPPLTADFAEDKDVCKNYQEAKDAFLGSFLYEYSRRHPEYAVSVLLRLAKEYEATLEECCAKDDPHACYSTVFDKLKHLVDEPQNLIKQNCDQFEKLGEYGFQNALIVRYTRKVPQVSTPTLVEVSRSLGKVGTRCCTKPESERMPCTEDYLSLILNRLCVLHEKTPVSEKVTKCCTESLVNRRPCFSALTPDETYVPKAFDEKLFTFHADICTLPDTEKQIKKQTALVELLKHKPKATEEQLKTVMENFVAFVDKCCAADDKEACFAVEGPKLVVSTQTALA

response (VH about 6.4 nM (4th point of the titration, read from the log x axis), parent: est. 1.7): 0.65 Abs (490 nm)
response (VH about 16 nM (5th point of the titration, read from the log x axis), parent: est. 3.1): 1.9 Abs (490 nm)
B1: VH DO1 (VH-His6 of scFv DO1) R97A (protein)
chain: EVQLQQSGPELVKPGASVKMSCKASGYTFTSYVMHWVKQKPGQGLEWIGYINPHNDGTKYNEKFKGKATLTSDKSSSTAYMELSSLTSEDSAVYYCARKLAGFAYWGQGTLVTVSS
